Measured values published in patent US9127130B2, “Polylysine dendrimer contrast agent” (STARPHARMA PTY LTD., priority 2006, dated 2015).
Read-outs that look alike come from different tables or passages of the source.

Columns and labels:
human thrombi = assay: MRI of in vitro formed human plasma thrombi stained with Gadolinium loaded antibody-dendrimer constructs; format: cell-based
Method: Antibody-Dendrimer constructs (1.5 nmol) were loaded with Gadolinium by adding 64 nmol GdCl3.6H2O in PBS (0.1M, pH 7.4) overnight at room temperature under shaking. Excess Gadolinium was removed by dialysis (10,000 Dalton dialysis membrane, 12 h against 500 mL PBS with 3 buffer changes every 4 h).
To form human thrombi in vitro 1 mL platelet rich plasma (citrated blood spun down at 1000 rpm for 10 min) was mixed with 100 μL ADP, 88 μL Actin, 25 μL 1 M CaCl2 in a 1.5 mL reaction tube. Samples were incubated for 12 min at 37° C. in a water bath, incubated with antibody-dendrimer fusion product for another 30 min at 37° C. under continuous rotation. Thrombi were washed 3 times with 2 mL PBS for 10 min and fixed in formalin solution (1%) before imaging.
MRI of thrombi was performed on a 4.7 Tesla animal MRI scanner (Biospin Bruker). T1 weighted images with TE/TR 15 ms/350 ms were taken with a resolution of 512×512 μm (FOV 7 cm, average 4). 10 slices of 1 mm thickness were taken.

[1] = cited from earlier work

MAL-(CH2)2CONH-PEG1100-CO-NEOEOEN[Su(NPN)2][Lys]8[Su-p-Bn-DTPA]16 [Example 7v]
MRI signal, control experiment (human thrombi; non reduced C-terminal cysteine antibody incubated with dendrimer): did not show any MRI signal | MRI signal, control experiment (human thrombi; non-modified antibody (no Traut's reagent) incubated with dendrimer): did not show any MRI signal

[TFA.NH2(CH2)5NHSu]NEOEOEN[Su(NPN)2]Lys8[Su-p-Bn-DTPA]16 [Example 9iv]
MRI signal, control experiment (human thrombi; antibody incubated with dendrimer but without the Transglutaminase coupling enzyme): did not show any MRI signal

α-methoxy-ω-{N-2-(3-hydroxypropyl-cholesterylcarbarnate)-2-methyl-[1,3]dioxan-5-yl-amido}-polyethyleneglycol110
stability of the conjugate ([1]; acidic conditions (pH 4-6)): not stable

α-methoxy-ω-{N-(2-cholesteryloxy-[1,3]dioxolan-4-yl)methylamido}-polyethyleneglycol110
stability of the conjugate ([1]; pH 4): moderately less stable | stability of the conjugate ([1]; pH 5): very stable

α-methoxy-ω-{N-(2-methyl-s-octadecyloxy-[1,3]dioxan-5-yl)-amido}-polyethyleneglycol110
stability of the conjugate ([1]; acidic conditions (pH 4-6)): not stable

α-methoxy-ω-{N-(2-octadecyloxy-[1,3]dioxolan-4-yl)methylamido}-polyethyleneglycol110
stability of the conjugate ([1]; pH 4): good stability | stability of the conjugate ([1]; pH 5): good stability
